Results reported in patent publication US20210388087A1.
Changes are numbered by the printed parent chain. Names and notes keep the numbering of the source.

B1: H183/L072 VH Y55T (antibody, name in Kabat numbering, V domains shown)
VH: QVQLVESGGGLVQPGRSLRLSCAASGFTFSNAWMHWVRQAPGKGLEWVAQIKDKGNATAAYYAPSVKGRFTISRDDSKNSIYLQMNSLKTEDTAVYYCHYVHYASASTVLPAFGVDAWGQGTTVTVSS
VL: DIVMTQSPLSLPVTPGEPASISCQASQELVHMNRNTYLHWYQQKPGQAPRLLIYKVSNRFPGVPDRFSGSGSGTDFTLKISRVEAEDVGVYYCAQGTSVPFTFGQGTKLEIK
B2: H183/L072 VH K52D (antibody, name in Kabat numbering, V domains shown)
VH: B1 VH with K52D, T58Y
VL: B1 VL
B3: H183/L072 VH W33E (antibody, name in Kabat numbering, V domains shown)
VH: B1 VH with W33E, T58Y
VL: B1 VL
B4: H183/L072 VH W33D (antibody, name in Kabat numbering, V domains shown)
VH: B1 VH with W33D, T58Y
VL: B1 VL
B5: H183/L072 VH I51D (antibody, name in Kabat numbering, V domains shown)
VH: B1 VH with I51D, T58Y
VL: B1 VL
B6: H183/L072 VH H35E (antibody, name in Kabat numbering, V domains shown)
VH: B1 VH with H35E, T58Y
VL: B1 VL
B7: H183/L072 VH T28D (antibody, name in Kabat numbering, V domains shown)
VH: B1 VH with T28D, T58Y
VL: B1 VL
B8: H183/L072 VH K52bD (antibody, name in Kabat numbering, V domains shown)
VH: B1 VH with K54D, T58Y
VL: B1 VL
B9: H183/L072 VH N31D (antibody, name in Kabat numbering, V domains shown)
VH: B1 VH with N31D, T58Y
VL: B1 VL
B10: H183/L072 VH M34E (antibody, name in Kabat numbering, V domains shown)
VH: B1 VH with M34E, T58Y
VL: B1 VL
B11: H183/L072 VH F29D (antibody, name in Kabat numbering, V domains shown)
VH: B1 VH with F29D, T58Y
VL: B1 VL
B12: H183/L072 VH F29E (antibody, name in Kabat numbering, V domains shown)
VH: B1 VH with F29E, T58Y
VL: B1 VL
B13: H183/L072 VH H35D (antibody, name in Kabat numbering, V domains shown)
VH: B1 VH with H35D, T58Y
VL: B1 VL
B14: H183/L072 VH A32D (antibody, name in Kabat numbering, V domains shown)
VH: B1 VH with A32D, T58Y
VL: B1 VL
B15: H183/L072 VH N53D (antibody, name in Kabat numbering, V domains shown)
VH: B1 VH with N56D, T58Y
VL: B1 VL
B16: H183/L072 VH I51E (antibody, name in Kabat numbering, V domains shown)
VH: B1 VH with I51E, T58Y
VL: B1 VL
B17: H183/L072 VH N31E (antibody, name in Kabat numbering, V domains shown)
VH: B1 VH with N31E, T58Y
VL: B1 VL
B18: H183/L072 VH M34D (antibody, name in Kabat numbering, V domains shown)
VH: B1 VH with M34D, T58Y
VL: B1 VL

Target: Human CD137 ECD (human)
Test: single mutant vs template dBBDu183H

Human CD137 ECD (human), sequence (chain, as listed by the source limits assumed): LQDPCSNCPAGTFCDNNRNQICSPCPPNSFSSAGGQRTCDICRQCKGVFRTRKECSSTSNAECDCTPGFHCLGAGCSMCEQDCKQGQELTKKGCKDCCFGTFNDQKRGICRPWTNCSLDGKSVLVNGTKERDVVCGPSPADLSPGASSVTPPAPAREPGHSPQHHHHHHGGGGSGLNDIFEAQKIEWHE

| Binder | fold change of affinity [fold] |
| --- | --- |
| B1 | 0 |
| B2 | 0 |
| B3 | 0 |
| B4 | 0 |
| B5 | 0 |
| B6 | 0 |
| B7 | 0 |
| B8 | 0 |
| B9 | 0 |
| B10 | 0 |
| B11 | 0 |
| B12 | 0 |
| B13 | 0 |
| B14 | 0 |
| B15 | 0 |
| B16 | 0 |
| B17 | 0 |
| B18 | 0 |
